Laboratory results published in the Human Domainome abundance scans (Beltran et al. 2025).
± gives the uncertainty stated by the source.

B1: POU domain, class 3, transcription factor 4, residues 280 to 335; numbered along this chain, P49335 (parent)
chain: KKRTSIEVSVKGVLETHFLKCPKPAAQEISSLADSLQLEKEVVRVWFCNRRQKEKR

Variants of: B1
Assay: abundance fitness (aPCA) (normalised: wild type 0, dead -1); higher = more abundant; growth selection in yeast, the domain comes from the species named
Details: Homo sapiens

Variant	abundance fitness
R50C	-0.769 ± 0.36
R50P	-0.87 ± 0.23
R50A	-0.582 ± 0.14
R50M	-0.692 ± 0.34
R50G	-0.778 ± 0.14
R50E	-0.814 ± 0.21
R50K	-0.446 ± 0.2
R50I	-0.93 ± 0.28
R50N	-0.771 ± 0.41
R50L	-0.93 ± 0.2
R50T	-0.693 ± 0.25
R50Y	-0.559 ± 0.34
R50Q	-0.88 ± 0.41
R50W	-0.999 ± 0.34
C48R	0.056 ± 0.12
C48E	0.549 ± 0.19
C48A	-0.051 ± 0.18
C48M	0.022 ± 0.19
C48D	0.023 ± 0.25
C48Q	0.154 ± 0.16
C48T	-0.187 ± 0.21
C48G	-0.526 ± 0.14
C48S	0.078 ± 0.13
C48I	0.155 ± 0.2

Variant	abundance fitness
C48V	0.058 ± 0.15
C48P	-0.762 ± 0.21
C48H	0.068 ± 0.28
C48K	0.282 ± 0.24
C48W	-0.073 ± 0.16
C48N	-0.113 ± 0.22
L32M	-0.425 ± 0.27
L32F	-0.877 ± 0.38
L32R	-0.847 ± 0.2
L32I	-0.041 ± 0.48
L32T	-0.939 ± 0.46
L32P	-0.176 ± 0.34
L32Q	-0.916 ± 0.35
L32W	-0.614 ± 0.28
L32V	-0.625 ± 0.2
L32N	-0.785 ± 0.32
L32H	-0.86 ± 0.35
L32S	-0.732 ± 0.24
L32G	-0.784 ± 0.22
V42Y	-0.396 ± 0.43
V42K	-0.596 ± 0.35
V42A	-0.552 ± 0.22
V42E	0.185 ± 0.2
V42T	0.207 ± 0.18

Variant	abundance fitness
V42G	-0.648 ± 0.17
V42D	0.216 ± 0.41
V42P	-0.874 ± 0.28
V42S	-0.431 ± 0.17
V42R	-0.689 ± 0.14
V42W	-0.291 ± 0.15
V42I	-0.49 ± 0.32
V42N	-0.799 ± 0.41
V42Q	-0.254 ± 0.24
V42F	-0.318 ± 0.26
V42M	-0.401 ± 0.2
V42L	-0.122 ± 0.13
F47D	-0.565 ± 0.4
F47S	-0.426 ± 0.15
F47R	-0.677 ± 0.17
F47K	-1.16 ± 0.36
F47C	-0.792 ± 0.31
F47W	-0.769 ± 0.21
F47A	-0.65 ± 0.17
F47V	-0.795 ± 0.19
F47L	-0.868 ± 0.17
F47Q	-0.899 ± 0.31
F47G	-0.745 ± 0.18
F47M	-0.897 ± 0.3

Variant	abundance fitness
F47H	-0.571 ± 0.38
F47Y	-0.534 ± 0.3
F47E	-0.872 ± 0.23
F47P	-0.996 ± 0.27
Q52E	0.084 ± 0.17
Q52A	0.203 ± 0.13
Q52H	-0.069 ± 0.23
Q52Y	-0.095 ± 0.34
Q52C	-0.291 ± 0.21
Q52L	-0.055 ± 0.13
Q52I	-0.126 ± 0.23
Q52G	-0.34 ± 0.13
Q52T	-0.351 ± 0.22
Q52V	-0.378 ± 0.14
Q52W	-0.685 ± 0.23
Q52P	-0.741 ± 0.22
Q52F	-0.931 ± 0.38
Q52M	0.071 ± 0.2
Q52N	0.273 ± 0.27
Q52R	-0.317 ± 0.13
Q52D	0.231 ± 0.2
W46R	-0.927 ± 0.16
W46N	-0.816 ± 0.29
W46M	-0.932 ± 0.26

Variant	abundance fitness
W46V	-0.82 ± 0.17
W46S	-0.693 ± 0.21
W46F	-1.05 ± 0.34
W46H	-0.647 ± 0.35
W46A	-0.623 ± 0.15
W46P	-0.953 ± 0.29
W46T	-0.709 ± 0.19
W46G	-0.639 ± 0.15
W46I	-0.688 ± 0.25
W46E	-0.892 ± 0.25
W46K	-0.673 ± 0.25
W46Q	-0.403 ± 0.27
Q37V	-0.923 ± 0.29
Q37M	-0.22 ± 0.32
Q37S	-0.081 ± 0.2
Q37A	-0.437 ± 0.33
Q37L	-0.664 ± 0.29
Q37H	0.104 ± 0.22
Q37D	0.043 ± 0.33
Q37C	-0.198 ± 0.27
Q37F	-0.615 ± 0.38
Q37G	0.177 ± 0.21
Q37N	0.071 ± 0.31
Q37R	-0.21 ± 0.17

Variant	abundance fitness
Q37K	-0.322 ± 0.48
Q37P	-0.855 ± 0.33
A33V	-1.02 ± 0.24
A33K	-0.959 ± 0.41
A33F	-0.773 ± 0.3
A33T	-0.704 ± 0.25
A33G	-0.853 ± 0.2
A33R	-0.667 ± 0.15
A33W	-0.835 ± 0.27
A33I	-0.802 ± 0.31
A33E	-0.634 ± 0.26
A33L	-0.598 ± 0.13
A33Y	-0.917 ± 0.39
A33P	-0.907 ± 0.3
A33D	-0.96 ± 0.31
A33N	-0.964 ± 0.38
A33M	-0.836 ± 0.38
V43M	-1.22 ± 0.47
V43P	-0.774 ± 0.23
V43D	-0.614 ± 0.28
V43S	-0.852 ± 0.17
V43R	-0.738 ± 0.15
V43C	-0.832 ± 0.27
V43G	-0.687 ± 0.17

Variant	abundance fitness
V43I	-0.543 ± 0.2
V43Q	-0.601 ± 0.3
V43W	-1.19 ± 0.38
V43Y	-0.545 ± 0.23
V43K	-1.01 ± 0.36
V43L	-0.437 ± 0.15
V43E	-0.815 ± 0.33
V43F	-0.567 ± 0.28
V43A	-0.692 ± 0.19
V43T	-0.975 ± 0.2
N49A	-0.373 ± 0.17
N49D	0 ± 0.23
N49I	-0.613 ± 0.24
N49K	-0.119 ± 0.16
N49F	-0.574 ± 0.18
N49E	0.117 ± 0.2
N49Y	-0.752 ± 0.23
N49C	-0.686 ± 0.28
N49W	-0.885 ± 0.21
N49M	-0.304 ± 0.22
N49Q	0 ± 0.16
N49G	-0.711 ± 0.17
N49H	-0.46 ± 0.2
N49L	-0.479 ± 0.14

Variant	abundance fitness
N49S	-0.308 ± 0.14
N49T	-0.363 ± 0.14
N49P	-0.724 ± 0.21
L38M	-0.148 ± 0.16
L38T	-0.607 ± 0.21
L38W	-0.884 ± 0.21
L38Q	-0.89 ± 0.26
L38E	-0.729 ± 0.29
L38K	-0.531 ± 0.29
L38S	-0.815 ± 0.18
L38C	-0.656 ± 0.22
L38G	-0.679 ± 0.14
L38V	-0.269 ± 0.15
L38Y	-0.483 ± 0.33
L38A	-0.744 ± 0.23
L38I	0.048 ± 0.26
L38P	-0.932 ± 0.29
D34M	-0.479 ± 0.21
D34T	-0.472 ± 0.19
D34I	-0.717 ± 0.32
D34N	-0.384 ± 0.21
D34G	-0.537 ± 0.15
D34K	0.109 ± 0.22
D34Q	-0.183 ± 0.21

Variant	abundance fitness
D34A	-0.254 ± 0.13
D34C	-0.531 ± 0.37
D34R	0.019 ± 0.12
D34Y	-0.793 ± 0.31
D34H	0.069 ± 0.2
D34S	-0.317 ± 0.13
D34L	-0.528 ± 0.13
D34P	-0.843 ± 0.29
D34E	-0.172 ± 0.18
D34W	-0.801 ± 0.16
E41I	-0.828 ± 0.31
E41A	-0.776 ± 0.19
E41N	-0.189 ± 0.29
E41L	-0.955 ± 0.15
E41G	-0.709 ± 0.14
E41Y	-0.819 ± 0.4
E41T	-0.466 ± 0.21
E41R	-0.637 ± 0.14
E41V	-0.817 ± 0.2
E41W	-0.852 ± 0.2
E41H	-0.161 ± 0.21
E41Q	-0.792 ± 0.5
E41F	-0.841 ± 0.23
E41K	-0.602 ± 0.21

Variant	abundance fitness
E41S	-0.368 ± 0.13
E41P	-0.831 ± 0.25
E41D	0.043 ± 0.2
E41C	-0.84 ± 0.23
E39M	-0.478 ± 0.29
E39Q	-0.522 ± 0.41
E39I	-0.456 ± 0.25
E39V	-0.565 ± 0.18
E39K	-0.583 ± 0.34
E39H	-0.551 ± 0.43
E39W	-0.746 ± 0.21
E39G	-0.686 ± 0.16
E39N	-0.134 ± 0.25
E39S	-0.074 ± 0.12
E39C	-0.411 ± 0.19
E39A	-0.515 ± 0.21
E39R	-0.572 ± 0.12
E39T	-0.421 ± 0.26
E39P	-0.022 ± 0.17
E39F	-0.735 ± 0.34
E39D	0.122 ± 0.17
K53C	-0.428 ± 0.35
K53D	-0.232 ± 0.2
K53G	-0.826 ± 0.2

Variant	abundance fitness
K53M	-0.049 ± 0.29
K53F	-0.027 ± 0.29
K53P	-0.884 ± 0.25
K53E	0.194 ± 0.18
K53A	-0.066 ± 0.13
K53N	-0.544 ± 0.41
K53Q	-0.258 ± 0.24
R51D	-0.839 ± 0.34
R51N	-0.628 ± 0.37
R51S	-0.549 ± 0.18
R51W	-0.221 ± 0.17
R51K	-1.04 ± 0.35
R51T	-0.848 ± 0.33
R51A	-0.309 ± 0.14
R51G	-0.804 ± 0.14
R51L	-0.305 ± 0.14
R51Q	-0.237 ± 0.18
R51Y	-0.193 ± 0.47
R51E	-0.258 ± 0.16
R51V	-0.424 ± 0.13
R51M	-0.243 ± 0.21
R51P	-0.834 ± 0.25
R51C	-0.506 ± 0.24
V45K	0.165 ± 0.18

Variant	abundance fitness
V45S	0.097 ± 0.15
V45H	-0.077 ± 0.26
V45F	-0.517 ± 0.37
V45L	0.052 ± 0.12
V45E	0.193 ± 0.14
V45P	-0.38 ± 0.2
V45T	0.307 ± 0.15
V45C	-0.243 ± 0.36
V45Q	0.156 ± 0.14
V45M	-0.041 ± 0.26
V45I	-0.527 ± 0.34
V45G	-0.25 ± 0.14
V45N	0.373 ± 0.17
V45R	-0.062 ± 0.13
V45A	0.085 ± 0.12
V45Y	-0.372 ± 0.25
V45W	-0.337 ± 0.18
L36E	-0.781 ± 0.39
L36G	-0.703 ± 0.33
S35R	0.152 ± 0.11
S35W	-0.707 ± 0.2
S35V	-0.456 ± 0.13
S35D	0.031 ± 0.25
S35K	0.257 ± 0.15

Variant	abundance fitness
S35M	0.127 ± 0.17
S35I	-0.373 ± 0.15
S35L	-0.122 ± 0.11
S35F	-0.249 ± 0.14
S35G	-0.638 ± 0.15
S35T	-0.01 ± 0.13
S35E	0.115 ± 0.17
S35H	0.345 ± 0.21
S35Y	-0.364 ± 0.17
S35C	-0.383 ± 0.17
S35A	0.071 ± 0.14
S35N	-0.45 ± 0.24
R44I	-1.01 ± 0.36
R44N	0.059 ± 0.23
R44Y	-0.643 ± 0.34
R44A	-0.193 ± 0.13
R44Q	-0.074 ± 0.16
R44L	-0.686 ± 0.12
R44V	-0.84 ± 0.16
R44T	-0.343 ± 0.16
R44M	-0.539 ± 0.22
R44W	-0.68 ± 0.2
R44C	-0.801 ± 0.38
R44P	-0.865 ± 0.26

Variant	abundance fitness
R44S	-0.343 ± 0.14
R44E	0.182 ± 0.18
R44G	-0.473 ± 0.14
K40L	-0.418 ± 0.14
K40D	-0.287 ± 0.27
K40M	-0.269 ± 0.15
K40V	0.097 ± 0.14
K40W	-0.539 ± 0.18
K40R	-0.071 ± 0.14
K40S	-0.188 ± 0.14
K40T	0.181 ± 0.16
K40I	-0.638 ± 0.27
K40N	-0.248 ± 0.28
K40G	-0.441 ± 0.16
K40E	0.192 ± 0.23
K40Y	0.009 ± 0.2
K40A	0.026 ± 0.15
K40F	0.195 ± 0.17
K40P	0.348 ± 0.18
K40C	-0.154 ± 0.25
K40H	0.099 ± 0.22
K40Q	-0.063 ± 0.19
